Data set [1] has as its target T1, CrtRPn (CrtR from P. nicotinovorans) (Paenarthrobacter nicotinovorans, UniProt A0ABT9TUN6).
T1 construct: gene J2T10_004447; full length, N-terminal His-tag (pET16b) kept, E. coli BL21(DE3), Ni-NTA; gene divergent to idi, not the mmpL-linked paralog
T1 sequence (A0ABT9TUN6 1-195): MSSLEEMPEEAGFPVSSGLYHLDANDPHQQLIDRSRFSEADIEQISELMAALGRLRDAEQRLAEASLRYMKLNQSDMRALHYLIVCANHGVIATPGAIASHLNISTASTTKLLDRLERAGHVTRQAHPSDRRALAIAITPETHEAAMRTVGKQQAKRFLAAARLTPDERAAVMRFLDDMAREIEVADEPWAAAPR
The experiment in a line: EMSA, inhibition of CrtR binding to own crtR promoter DNA. Conditions: 100-650 uM GGPP, 15 min preincubation before DNA; pH 7.5, 10 mM MgCl2, room temperature. For orientation: In EMSA bound probe runs differently from free probe, usually more slowly.

The target of data set [2] is T2, CrtRCc (CrtR from C. callunae) (Corynebacterium callunae, UniProt M1UIJ0).
T2 construct: gene H924_00295; full length, N-terminal His-tag (pET16b) kept, E. coli BL21(DE3), Ni-NTA
T2 sequence (M1UIJ0 1-194): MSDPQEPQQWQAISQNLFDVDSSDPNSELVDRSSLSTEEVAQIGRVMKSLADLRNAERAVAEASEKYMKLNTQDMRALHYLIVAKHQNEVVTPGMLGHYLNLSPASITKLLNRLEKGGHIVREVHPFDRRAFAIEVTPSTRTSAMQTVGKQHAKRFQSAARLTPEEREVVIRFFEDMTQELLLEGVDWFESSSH
Nature of the data set: EMSA, inhibition of CrtR binding to own crtR promoter DNA and crtE promoter DNA. Conditions: 100-650 uM GGPP, 15 min preincubation before DNA; pH 7.5, 10 mM MgCl2, room temperature.

For data set [3], the target named is T3, CrtR (CrtRCg) (Corynebacterium glutamicum ATCC 13032) (UniProt Q8NSP1).
T3 sequence: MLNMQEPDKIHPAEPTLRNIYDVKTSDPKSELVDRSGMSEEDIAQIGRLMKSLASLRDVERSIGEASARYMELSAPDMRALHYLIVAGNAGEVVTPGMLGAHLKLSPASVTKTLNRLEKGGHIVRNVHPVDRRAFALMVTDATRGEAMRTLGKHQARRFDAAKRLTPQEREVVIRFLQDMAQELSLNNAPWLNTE
The experiment in a line: EMSA. The following applies: 50 mM Tris-HCl pH 7.5, 10% glycerol, 50 mM KCl, 10 mM MgCl2, 0.5 mM EDTA; 20 uL, 30-90 ng DNA, 30 min at room temperature; 78 bp cg2228 upstream fragment ….

Data set [4] concerns T4, CrtR ortholog (CrtRPc) (Pseudarthrobacter chlorophenolicus DSM 12829), ORF:f49de8fb.
T4 sequence: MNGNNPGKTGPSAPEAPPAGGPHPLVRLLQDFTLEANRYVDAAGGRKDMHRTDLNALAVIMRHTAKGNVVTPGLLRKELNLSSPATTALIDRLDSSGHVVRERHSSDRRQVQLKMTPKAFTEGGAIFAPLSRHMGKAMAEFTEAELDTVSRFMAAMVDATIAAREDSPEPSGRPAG
Nature of the data set: EMSA. The following applies: 50 mM Tris-HCl pH 7.5, 10% glycerol, 50 mM KCl, 10 mM MgCl2, 0.5 mM EDTA; 20 uL, 30-90 ng DNA, 30 min at room temperature; 78 bp cg2228 upstream fragment ….

A further data set has as its target T5, CrtR (CrtRCg) (Corynebacterium glutamicum ATCC 13032, UniProt Q8NSP1 1-195).
T5 sequence: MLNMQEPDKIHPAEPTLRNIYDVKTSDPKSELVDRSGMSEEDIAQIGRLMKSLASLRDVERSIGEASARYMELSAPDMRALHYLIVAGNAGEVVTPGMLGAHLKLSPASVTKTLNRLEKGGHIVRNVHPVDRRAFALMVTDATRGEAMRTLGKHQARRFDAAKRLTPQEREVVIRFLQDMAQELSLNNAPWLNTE
The experiment in a line: EMSA; strong binding; 50 mM Tris-HCl pH 7.5, 10% glycerol, 50 mM KCl, 10 mM MgCl2, 0.5 mM EDTA; 20 uL, 30-90 ng DNA, 30 min at room temperature; 78 bp cg2228 upstream fragment (negative control) in every sample; GGPP preincubated 15 min. Conditions: protein: recombinant; tags: N-terminal His-tag (pET16b), not removed; chain copies: 2; blunt.

The target in another data set is T6, CrtR ortholog (CrtRPn) (Paenarthrobacter nicotinovorans DSM 420, UniProt A0ABT9TUN6 1-195).
T6 sequence: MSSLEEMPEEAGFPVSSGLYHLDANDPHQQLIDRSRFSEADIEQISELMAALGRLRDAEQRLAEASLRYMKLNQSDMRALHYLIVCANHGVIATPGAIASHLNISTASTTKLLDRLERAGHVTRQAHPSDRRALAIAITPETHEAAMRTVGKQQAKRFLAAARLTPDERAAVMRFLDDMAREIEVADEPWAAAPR
The experiment in a line: EMSA; no GGPP; not all DNA shifted; 50 mM Tris-HCl pH 7.5, 10% glycerol, 50 mM KCl, 10 mM MgCl2, 0.5 mM EDTA; 20 uL, 30-90 ng DNA, 30 min at room temperature; 78 bp cg2228 upstream fragment (negative control) in every sample; GGPP preincubated 15 min. Conditions: protein: recombinant; tags: N-terminal His-tag (pET16b), not removed; chain copies: 2; blunt.

Regarding `CC(C)=CCC/C(C)=C/CC/C(C)=C/CC/C(C)=C/COP(=O)(O)OP(=O)(O)O` [GGPP], the “EMSA, inhibition of CrtR binding to own crtR promoter DNA” value in data set [1] was “GGPP inhibited the interaction between the tested CrtR proteins and their target DNA”. Moreover, the “EMSA, inhibition of CrtR binding to own crtR promoter DNA and crtE promoter DNA” value in data set [2] is “GGPP inhibited the interaction between the tested CrtR proteins and their target DNA”.

“TGCCTTCCATGCGGATGGTCCACGCGGGACAAAGCGGAGTAGGATTGGTTCCACATTAGACTATCTCCATGATAGAGATAAGTGCCAGTCAAGCTTTTTCAACGGGGGCCTCCGCCGGGGGCTTCCACGGCTGAGCCAGGTAATGCCAAGGCAGCTGAAGTAATATCCCTCAGGGCCTGTGCGCAAAGACGGACGGCCCCACGAACTCCAGGAGGTGACCATGAACGGCAACAATCCGGGCA (double strand) [P. chlorophenolicus crtR-mmpl intergenic region (PcrtR)]”: the binding entry in data set [3] was “binds more weakly”; in data set [4] it was “binds”.

B1: P. nicotinovorans crtR-idi intergenic region (dsDNA)
DNA 1: CATACTGCGCCTTCCTCCTGCAACCTGAGTCTTTACAGCAGCCCGAATATTGCTAGACAAGCTAGAAGAAAGGCTACCATGTAGGAAGTTAGGTGTAACATACTCAGCATG
DNA 2: CATGCTGAGTATGTTACACCTAACTTCCTACATGGTAGCCTTTCTTCTAGCTTGTCTAGCAATATTCGGGCTGCTGTAAAGACTCAGGTTGCAGGAGGAAGGCGCAGTATG
For B1, the binding result in the data set with CrtR (CrtRCg) and with CrtR ortholog (CrtRPn) was “binds” in each case.

B2: C. callunae crtR-mmpl intergenic region (dsDNA)
DNA 1: CGCAAGATGCCGGGAAATACGCTCTGAAGAGGGGTTTTCATGGCCTTAAACCTTTATATATGCAAATTGTTAAATTATCCAACAGTGTAAGGTATCCCATTTTCTTAAAAAAAGGGTTAATATCCATCTATGTCCGATCCGCAA
DNA 2: TTGCGGATCGGACATAGATGGATATTAACCCTTTTTTTAAGAAAATGGGATACCTTACACTGTTGGATAATTTAACAATTTGCATATATAAAGGTTTAAGGCCATGAAAACCCCTCTTCAGAGCGTATTTCCCGGCATCTTGCG
On to B2, for which the binding result with CrtR (CrtRCg) is reported as “binds”.

These data come from publication PMC7432914, “Corynebacterium glutamicum CrtR and Its Orthologs in Actinobacteria: Conserved Function and Application as Genetically Encoded Biosensor for Detection of Geranylgeranyl Pyrophosphate” (International Journal of Molecular Sciences, 2020).
